Reference: the RNAGym collection of RNA variant scans (doi:10.7554/elife.80360)

B1: CPEB3 Ribozyme (parent)
chain: GGGGGCCACAGCAGAAGCGUUCACGUCGCGGCCCCUGUCAGAUUCUGGUGAAUCUGCGAAUUCUGCUGU

Variants of: B1
Assay: self-cleavage, relative activity (ratio to wild type); higher = more cleavage; co-transcriptional

Row | Variant | self-cleavage
1 | A15G C54G | 0.886
2 | A15G C54A | 0.914
3 | A15G C54U | 1.04
4 | G14U U20G | 0.137
5 | G14U U20A | 0.121
6 | A15G U43C | 1.01
7 | A15U A23G | 0.658
8 | A15U A23C | 0.723
9 | A15U A23U | 0.95
10 | A15U A51C | 0.79
11 | A15U A51G | 0.916
12 | A15G C27A | 0.645
13 | A15G C27G | 0.316
14 | A15G C27U | 0.204
15 | A15G A42C | 0.789
16 | A15G A42G | 0.928
17 | A15C A52G | 0.98
18 | A15G U20A | 0.092
19 | A15G U20G | 0.161
20 | A15C G17A | 0.136
21 | A15C G17U | 0.25
22 | G14U C57A | 0.216
23 | G14U C57U | 0.351
24 | G14U C57G | 0.246

Row | Variant | self-cleavage
25 | A15G A59G | 0.994
26 | A15G A59U | 0.785
27 | A15C C32A | 0.302
28 | A15C C32G | 0.153
29 | A15C U43C | 0.754
30 | A15G G48A | 0.966
31 | A15G G48U | 0.989
32 | A15G G48C | 1
33 | A15C A16U | 0.49
34 | A15C A16G | 0.142
35 | A15C A16C | 0.111
36 | A15G G65U | 0.784
37 | A15G G65C | 0.825
38 | A15C G50C | 0.808
39 | A15C G50A | 0.933
40 | A15G G68A | 1.02
41 | A15G G68C | 1.05
42 | A15G G58C | 1.01
43 | A15G G58U | 0.978
44 | A15G A51C | 0.993
45 | A15C U21A | 0.791
46 | A15C U21C | 0.51
47 | G14U U38G | 0.111
48 | G14U U38A | 0.566

Row | Variant | self-cleavage
49 | G14U U38C | 0.573
50 | A15G U21G | 0.578
51 | A15G U21A | 0.956
52 | A15G G56C | 0.785
53 | A15G G56A | 0.944
54 | A15G G56U | 0.985
55 | G14U U21C | 0.379
56 | G14U U21A | 0.733
57 | A15G G30U | 0.342
58 | A15G G30A | 0.917
59 | A15U A59G | 0.856
60 | A15U A59C | 0.42
61 | A15U A59U | 0.331
62 | A15C C22U | 0.2
63 | G14U U44C | 0.325
64 | A15C G31A | 0.456
65 | A15C G31C | 0.27
66 | G14U U53C | 0.33
67 | G14U U53A | 0.356
68 | G14U U53G | 0.439
69 | G14U U64A | 0.458
70 | G14U U64C | 0.401
71 | G14U U64G | 0.481
72 | G14U U43G | 0.278

Row | Variant | self-cleavage
73 | G14U U43C | 0.472
74 | A15C C57U | 0.423
75 | A15G C66A | 0.828
76 | A15G C66U | 0.964
77 | A15G G17U | 0.424
78 | A15G G17A | 0.312
79 | A15G C29A | 0.636
80 | A15G C29G | 0.458
81 | G14U G68U | 0.816
82 | A15C U26A | 0.48
83 | A15C U26C | 0.73
84 | G14U U26A | 0.555
85 | G14U U26G | 0.559
86 | A15C C18G | 0.0508
87 | A15C C18U | 0.296
88 | A15C C18A | 0.174
89 | A15G G28A | 0.179
90 | A15G G28U | 0.141
91 | A15C G25A | 0.127
92 | A15C U55C | 0.545
93 | A15C U55A | 0.435
94 | G14U G56C | 0.292
95 | G14U G56U | 0.309
96 | A15C G56U | 0.626

Row | Variant | self-cleavage
97 | A15C G56A | 0.651
98 | G14U U61C | 0.367
99 | G14U U61G | 0.432
100 | G14U A52C | 0.715
101 | G14U A52U | 0.767
102 | G14U A60G | 0.4
103 | G14U C34G | 0.347
104 | G14U C34A | 0.526
105 | G14U C34U | 0.833
106 | G14U C66G | 0.325
107 | G14U C66A | 0.374
108 | G14U G48A | 0.893
109 | A15C C54G | 0.567
110 | A15C C54U | 0.865
111 | A15C C54A | 0.447
112 | G14U U49G | 0.867
113 | G14U U49C | 0.678
114 | A15G U36C | 0.966
115 | A15G U36A | 0.203
116 | A15G U36G | 0.152
117 | A15G C39A | 0.833
118 | G14U G50C | 0.616
119 | G14U G50A | 0.812
120 | G14U G50U | 0.815

Row | Variant | self-cleavage
121 | A15G C63G | 0.674
122 | A15G C63U | 0.947
123 | A15G C63A | 0.799
124 | A15U A40G | 0.697
125 | A15U A40C | 0.287
126 | A15G G41U | 0.891
127 | G14U U62G | 0.513
128 | G14U U62C | 0.364
129 | G14U C32U | 0.816
130 | G14U C32A | 0.333
131 | A15C U38A | 0.595
132 | A15C U38C | 0.571
133 | A15C U38G | 0.292
134 | G14U U67C | 0.55
135 | G14U U67G | 0.77
136 | G14U G47U | 0.857
137 | G14U G47C | 0.877
138 | G14U G47A | 0.836
139 | A15G C24A | 0.691
140 | G14U C33U | 0.79
141 | G14U C33A | 0.522
142 | G14U C24U | 0.137
143 | G14U C24G | 0.109
144 | G14U C54A | 0.266

Row | Variant | self-cleavage
145 | G14U C54G | 0.363
146 | G14U C54U | 0.734
147 | A15G A16G | 0.93
148 | A15G A16U | 0.691
149 | A15C A59C | 0.288
150 | A15G A60C | 0.43
151 | A15G A60G | 0.821
152 | A15G G50A | 0.973
153 | A15C U53A | 0.651
154 | A15C U46A | 0.93
155 | A15C U46C | 0.88
156 | G14U G65U | 0.334
157 | G14U G65A | 0.32
158 | G14U G65C | 0.384
159 | A15C C34A | 0.394
160 | A15C U20G | 0.139
161 | A15C U20C | 0.284
162 | A15C U20A | 0.125
163 | G14U C39U | 0.394
164 | G14U C39G | 0.373
165 | A15G U49C | 0.968
166 | A15G U49A | 0.986
167 | A15G U49G | 0.95
